Measurements as given in patent publication US20060251733A1.

Target: FcγR (receptor for the Fc portion of immunoglobulin molecule) on bone marrow derived macrophages (mouse)
Assay: cell-based or functional assay

In the case of “IgG-opsonized erythrocytes (E-IgG): sheep erythrocytes (SRBC) opsonized with rabbit IgG antibody to SRBC”, the IL-10 production by BMMφ (ELISA of supernatants), LPS + E-IgG is reported as 10 ng/mL and the IL-10 production by BMMφ (ELISA of supernatants), LPS + E-IgG against LPS alone is reported as over 5 fold.
